Results: PMC5292665, “Structural evidence for Arabidopsis glutathione transferase AtGSTF2 functioning as a transporter of small organic ligands” (FEBS Open Bio, 2016)

Target: the molecule itself
Assay: crystal structure; AtGSTF2 (10 mg/mL) co-crystallised with small-molecule ligands 1-4 (5 or 10 mM); four structures at 2.00-2.77 Å; dimers in the asymmetric unit

B1: Arabidopsis thaliana phi class glutathione transferase AtGSTF2 (enzyme)
chain: MAGIKVFGHPASIATRRVLIALHEKNLDFELVHVELKDGEHKKEPFLSRNPFGQVPAFEDGDLKLFESRAITQYIAHRYENQGTNLLQTDSKNISQYAIMAIGMQVEDHQFDPVASKLAFEQIFKSIYGLTTDEAVVAEEEAKLAKVLDVYEARLKEFKYLAGETFTLTDLHHIPAIQYLLGTPTKKLFTERPRVNEWVAEITKRPASEKVQ
notes: AtGSTF2, phi class glutathione transferase of Arabidopsis thaliana; no tag is named, and the protein was purified on GSH sepharose; also called phi class GST; source: E. coli Tuner (DE3) with pRARE, purified (GSH sepharose 4B, S75 Superdex gel filtration)
In the case of B1, the “stoichiometry N” value is reported as 2.
